These results are taken from paper PMC5113203.

The target in the data set is human lysyl-tRNA synthetase anticodon-binding domain (hLysRS ACB) (Homo sapiens, UniProt Q15046 91-216). Put plainly: fluorescence anisotropy. A general note: Polarisation of emitted light reports the rotation of a fluorescent probe.
Chain of human lysyl-tRNA synthetase anticodon-binding domain (hLysRS ACB) (Q15046 91-216): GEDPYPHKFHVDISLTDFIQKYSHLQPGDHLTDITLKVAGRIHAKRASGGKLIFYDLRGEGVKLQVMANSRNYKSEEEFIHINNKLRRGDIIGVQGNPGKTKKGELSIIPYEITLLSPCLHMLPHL

On to CCCCCCCCC (ssRNA) [C9], for which the binding signal is ~100 fold lower affinity than U9.
